Laboratory results taken from patent US20220175921A1 (published 2022).

T1: cynomolgus GITR, membrane bound (on activated cynomolgus T cells)
T1 chain: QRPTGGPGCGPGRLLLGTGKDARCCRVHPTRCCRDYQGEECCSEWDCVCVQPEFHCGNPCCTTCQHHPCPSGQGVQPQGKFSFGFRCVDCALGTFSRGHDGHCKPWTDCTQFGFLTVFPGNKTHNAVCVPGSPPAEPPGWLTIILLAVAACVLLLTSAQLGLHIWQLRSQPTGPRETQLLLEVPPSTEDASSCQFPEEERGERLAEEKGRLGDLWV

T2: human GITR, membrane bound (on activated human T cells or on 3A9-hGITR cells) (UniProt Q9Y5U5 26-241)
T2 chain: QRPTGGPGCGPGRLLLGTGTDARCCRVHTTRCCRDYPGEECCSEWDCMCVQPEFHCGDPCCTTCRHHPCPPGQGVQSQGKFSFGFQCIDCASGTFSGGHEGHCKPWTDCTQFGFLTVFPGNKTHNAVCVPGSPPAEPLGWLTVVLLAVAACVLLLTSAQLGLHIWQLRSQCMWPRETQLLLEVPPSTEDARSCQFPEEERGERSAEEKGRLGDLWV


Legend:
[1] = biological target: T1, cynomolgus GITR, membrane bound (on …); assay: FACS
[2] = biological target: T2, human GITR, membrane bound (on …); assay: FACS

EC50 [1] [nM]	EC50 [2] [nM]	Binder
142		3C3 (antibody, V domains shown) VH: QVQLQQWGAGLLKPSETLSLTCAVYGGSFSGYYWTWIRQPPGKGLEWIGKINHSGNTNYNPSLKSRVTISVDTSKNQFSLKLSSVTAADTAVYYCARLGAFDAFDIWGQGTMVTVSS VL: DIQMTQSPSSLSASVGDRVTITCRASQGISSWLAWYQQKPEKAPKSLIYAASSLQSGVPSRFSGSGSGTDFTLTISSLQPEDFATYYCQQYNSYPYTFGQGTKLEIKR
	0.277	anti-GITR.g2 (antibody) chain 1: QVQLVESGGGVVQPGRSLRLSCAASGFTFSSYGMHWVRQAPGKGLEWVAVIWYEGSNKYYADSVKGRFTISRDNSKNTLYLQMNSLRAEDTAVYYCARGGSMVRGDYYYGMDVWGQGTTVTVSSASTKGPSVFPLAPCSRSTSESTAALGCLVKDYFPEPVTVSWNSGALTSGVHTFPAVLQSSGLYSLSSVVTVPSSNFGTQTYTCNVDHKPSNTKVDKTVERKCCVECPPCPAPPVAGPSVFLFPPKPKDTLMISRTPEVTCVVVDVSHEDPEVQFNWYVDGVEVHNAKTKPREEQFNSTFRVVSVLTVVHQDWLNGKEYKCKVSNKGLPAPIEKTISKTKGQPREPQVYTLPPSREEMTKNQVSLTCLVKGFYPSDIAVEWESNGQPENNYKTTPPMLDSDGSFFLYSKLTVDKSRWQQGNVFSCSVMHEALHNHYTQKSLSLSPGK chain 2: not shown
	0.163	anti-GITR.g2.g1.1f (antibody) chain 1: QVQLVESGGGVVQPGRSLRLSCAASGFTFSSYGMHWVRQAPGKGLEWVAVIWYEGSNKYYADSVKGRFTISRDNSKNTLYLQMNSLRAEDTAVYYCARGGSMVRGDYYYGMDVWGQGTTVTVSSASTKGPSVFPLAPCSRSTSESTAALGCLVKDYFPEPVTVSWNSGALTSGVHTFPAVLQSSGLYSLSSVVTVPSSNFGTQTYTCNVDHKPSNTKVDKTVERKCCVECPPCPAPPVAGPSVFLFPPKPKDTLMISRTPEVTCVVVDVSHEDPEVKFNWYVDGVEVHNAKTKPREEQYNSTYRVVSVLTVLHQDWLNGKEYKCKVSNKALPSSIEKTISKAKGQPREPQVYTLPPSREEMTKNQVSLTCLVKGFYPSDIAVEWESNGQPENNYKTTPPVLDSDGSFFLYSKLTVDKSRWQQGNVFSCSVMHEALHNHYTQKSLSLSPG chain 2: not shown
